From US6613742B1, “Chemokine-derived synthetic peptides” (Thomas Jefferson University, priority 1999, dated 2003)
Where no end group is shown, it is not given here.

Target: T1, CXCR4 (Homo sapiens, UniProt P61073)
T1 construct: expressed in transfected cells; host or cells: QT6 cells, calcium phosphate transfection
Experiment: HIV-1 gp 120-CXCR4 mediated cell-cell fusion assay (luciferase reporter)
Assay type: cell-based
Conditions: for inhibiting cell-cell fusion, compared with N-terminal SDF-1 peptides SEQ ID NOS:8 and 10: effector 293 cells + QT6 target cells (CD4, CXCR4), peptide concentration 25 μM (FIG. 1)

T1 sequence (P61073 whole entry): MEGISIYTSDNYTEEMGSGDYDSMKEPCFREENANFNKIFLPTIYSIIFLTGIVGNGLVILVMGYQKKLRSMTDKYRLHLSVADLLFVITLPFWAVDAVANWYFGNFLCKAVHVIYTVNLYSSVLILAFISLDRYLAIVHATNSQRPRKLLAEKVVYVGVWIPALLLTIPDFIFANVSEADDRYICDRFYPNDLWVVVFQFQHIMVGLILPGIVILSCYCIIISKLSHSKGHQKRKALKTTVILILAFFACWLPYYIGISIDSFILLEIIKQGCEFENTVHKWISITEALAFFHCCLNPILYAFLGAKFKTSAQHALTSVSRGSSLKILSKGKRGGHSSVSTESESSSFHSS

Row | Sequence | inhibiting cell-cell fusion, compared with N-terminal SDF-1 peptides SEQ ID NOS:8 and 10 | activity in inhibiting cell-cell fusion (higher concentration of 50 μM)
1 | KPVSLSYRCPCRFFGGQGLKWIQEYLEKALN (cysteine pairing not given here) [SEQ ID NO:5, SDF-1 amino acids 1-14 and 55-67 linked by a (Gly)4 bridge] | substantially more effective | –
2 | LKWIQEYLEKALN [SEQ ID NO:9, C-terminal SDF-1 peptide prepared for comparison, reference compound] | – | only negligibly active
3 | LSYRCPCRFFGGGGLKWIQEYLEKALN (cysteine pairing not given here) [SEQ ID NO:4, SDF-1 amino acids 5-14 and 55-67 linked by (Gly)4] | substantially more effective | –
4 | LSYRCPCRFFGGLKWIQEYLEKALN (cysteine pairing not given here) [SEQ ID NO:6, SDF-1 amino acids 5-14 and 55-67 linked by (Gly)2] | substantially more effective | –
5 | LSYRCPCRFFKKKKLKWIQEYLEKALN (cysteine pairing not given here) [SEQ ID NO:7, SDF-1 amino acids 5-14 and 55-67 linked by (Lys)4] | substantially more effective | –
